Experimental data published in patent publication US6613531B2, “Sigma binding region of RNA polymerase and uses thereof” (priority 2000, dated 2003).

Columns and labels:
σ^70 [1] = molecular target: T1, σ^70 (Escherichia coli, UniProt P00579); conditions: for ability to bind σ^70 compared to wt β′1-319 fragment: normalized to amount of fragment
Protocol: Cells containing truncated β′ expression plasmids pTA610-620 were grown to an A600 of 0.6-0.8 and induced with 1 mM IPTG. The cells were grown for an additional 30 minutes. A 200 μl sample was removed and sonicated 3×30 seconds. Twenty μl of glycerol and 20 μl of SDS-sample buffer were added and heated for 2 minutes at 95° C. then stored at −20° C. until use. The lysates were separated by SDS-PAGE. The proteins were electrophoretically transferred onto 0.05 μm nitrocellulose.
The blot was dried and the signal was visualized with a PhosphorImager and quantitated with IMAGEQUANT software (Molecular Dynamics).
This method was initially employed to detect the functionality of the β′ mutants. The mutations were cloned into a gene fragment coding for amino acid residues 1-319 of the β′ subunit. […] Samples were analyzed for binding σ^70 by far Western analysis The amount of σ^70 probe bound by each β′1-319 mutant fragment was compared to the amount bound by wt β′1-319 fragment. Each signal was normalized to the amount of β′1-319 contained in the supernatant as determined by Western blotting.
Target sequence in this assay (P00579 whole entry, the tested form may be a part): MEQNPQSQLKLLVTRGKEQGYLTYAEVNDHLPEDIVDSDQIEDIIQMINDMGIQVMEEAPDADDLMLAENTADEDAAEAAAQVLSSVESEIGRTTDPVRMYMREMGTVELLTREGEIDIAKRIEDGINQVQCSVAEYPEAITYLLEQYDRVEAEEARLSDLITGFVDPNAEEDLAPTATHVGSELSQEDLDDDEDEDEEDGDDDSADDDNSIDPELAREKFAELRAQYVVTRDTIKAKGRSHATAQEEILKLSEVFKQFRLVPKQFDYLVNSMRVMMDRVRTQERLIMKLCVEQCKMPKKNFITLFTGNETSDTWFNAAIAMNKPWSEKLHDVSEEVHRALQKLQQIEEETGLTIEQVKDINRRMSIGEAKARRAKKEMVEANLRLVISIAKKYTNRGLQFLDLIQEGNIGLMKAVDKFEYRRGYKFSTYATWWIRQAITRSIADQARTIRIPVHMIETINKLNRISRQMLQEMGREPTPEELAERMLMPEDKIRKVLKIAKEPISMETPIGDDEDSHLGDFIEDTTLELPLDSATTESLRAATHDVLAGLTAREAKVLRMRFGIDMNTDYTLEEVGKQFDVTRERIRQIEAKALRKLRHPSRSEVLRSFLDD

strain RL602 = assay: Growth with plasmid-derived wild type or mutant β′ as sole source of β′ subunit; assay type: cell-based; conditions: 42° C., mutant β′ as sole source of β′
Protocol: Plasmids pTA577, 600-609 (0.1 μg) were transformed into strain RL602 (Weilbaecher et al., 1994; Ridley et al., 1982). After heat shock and incubation on ice, 300 μl of LB was added to the 50 μl cell mixture. Ten μl of the transformation reaction was spotted onto LB plates plus ampicillin (100 μg/ml) and incubated at 30° C. Another 10 μl was spotted onto plates and incubated at 42° C. The plates were incubated between 24-48 hours and assessed for growth.
To assess the importance of the σ^70 binding site in vivo, the ability of mutant β′ subunits to function as the cell's sole source of β′ was assessed. Plasmids containing either mutant or wild type, full length β′ were transformed into strain RL602 (Weilbaecher et al., 1994; Ridley et al., 1982). The chromosomal rpoC gene of RL602 has an amber mutation that prevents functional β′ from being produced in the absence of a suppressor tRNA. RL602 also has a chromosomal, temperature-sensitive, amber suppressor. At the permissive temperature (30° C.) the amber suppressor is active and allows chromosomal β′ to be produced and the cell can grow. The amber suppressor is not active at the non-permissive temperature (42° C.). Therefore, at 42° C., chromosomal β′ is not made and the cell cannot grow without another source of β′. If the plasmid-derived β′ can complement the loss of β′, the cells will grow and form colonies on plates at the non-permissive temperature. If the mutant β′ cannot complement, there will be no growth on the plates at this temperature.

σ^70 [2] = molecular target: T1, σ^70; conditions: for Eσ^70 formation / binding σ^70: log and stationary phase samples
Protocol: (§1) One L flasks containing 200 ml of LB with ampicillin (100 μg/ml) and IPTG (0.15 mM) were inoculated with 200 μl from an overnight culture of cells containing plasmids pTA561, 577, 600-609. The cultures were grown at 37° C. with shaking until the A600=0.4 for log phase assays and 2 hours longer (A600 about 2.0) for the early stationary phase assays. The cells were harvested by centrifugation at 6,000 rpm for 10 minutes and stored at −20° C. until use. The cell pellets were resuspended in 5 ml TE (10 mM Tris-HCl, pH 7.9 and 0.1 mM EDTA) plus 0.15 M NaCl and lysozyme (0.1 mg/ml) then incubated on ice for 15 minutes. The cells were sonicated 2×30 seconds and centrifuged for 25 minutes at 27,000×g to pellet the insoluble material. The supernatant was loaded onto a 1.5 ml immunoaffinity column containing the polyol-responsive, anti-β′ monoclonal antibody (MAb), NT73 (Thompson et al., 1992). The column was washed with 15 ml TE plus 0.15 M NaCl followed by a second wash with 10 ml TE plus 0.5 M NaCl. The protein was eluted from the column with 4 ml TE plus 0.7 M NaCl and 30% propylene glycol. The eluted sample (4 ml) was diluted with 6 ml buffer B (20 mM Tris-HCl, pH 7.9, 500 mM NaCl, 5 mM imidazole, 0.1% (v/v) Tween 20, and 10% (v/v) glycerol) and loaded (2×) onto 500 μl of Ni^2+-NTA resin. The resin was washed (2×) with 5 ml of buffer B and eluted with 0.5 ml buffer B plus 0.25 M imidazole. Samples from the elution fractions were assayed by Western blot as described above using Mabs to each subunit or σ factor. The secondary antibodies were horseradish peroxidase-labeled goat antimouse IgG antibodies and the signal was generated using the ECL+ substrate system (Amersham) and detected using the STORM FluoroImager and quantitated with IMAGEQUANT software (Molecular Dynamics).
(§2) To evaluate the potential assembly defects caused by the various mutations, His6-tagged, mutant β′ subunits were expressed in cells that were also expressing wild type, chromosomal β′ proteins. A Ni^2+-NTA column was used to purify the mutant β′ subunits together with associated cell proteins. An immunoaffinity column was used to clean-up the samples in order to reduce any non-specific binding to the Ni^2+-NTA column.
Target sequence in this assay (P00579 whole entry, the tested form may be a part): as above
Target sequence in this assay (P0A8T7 whole entry, further chain, the tested form may be a part): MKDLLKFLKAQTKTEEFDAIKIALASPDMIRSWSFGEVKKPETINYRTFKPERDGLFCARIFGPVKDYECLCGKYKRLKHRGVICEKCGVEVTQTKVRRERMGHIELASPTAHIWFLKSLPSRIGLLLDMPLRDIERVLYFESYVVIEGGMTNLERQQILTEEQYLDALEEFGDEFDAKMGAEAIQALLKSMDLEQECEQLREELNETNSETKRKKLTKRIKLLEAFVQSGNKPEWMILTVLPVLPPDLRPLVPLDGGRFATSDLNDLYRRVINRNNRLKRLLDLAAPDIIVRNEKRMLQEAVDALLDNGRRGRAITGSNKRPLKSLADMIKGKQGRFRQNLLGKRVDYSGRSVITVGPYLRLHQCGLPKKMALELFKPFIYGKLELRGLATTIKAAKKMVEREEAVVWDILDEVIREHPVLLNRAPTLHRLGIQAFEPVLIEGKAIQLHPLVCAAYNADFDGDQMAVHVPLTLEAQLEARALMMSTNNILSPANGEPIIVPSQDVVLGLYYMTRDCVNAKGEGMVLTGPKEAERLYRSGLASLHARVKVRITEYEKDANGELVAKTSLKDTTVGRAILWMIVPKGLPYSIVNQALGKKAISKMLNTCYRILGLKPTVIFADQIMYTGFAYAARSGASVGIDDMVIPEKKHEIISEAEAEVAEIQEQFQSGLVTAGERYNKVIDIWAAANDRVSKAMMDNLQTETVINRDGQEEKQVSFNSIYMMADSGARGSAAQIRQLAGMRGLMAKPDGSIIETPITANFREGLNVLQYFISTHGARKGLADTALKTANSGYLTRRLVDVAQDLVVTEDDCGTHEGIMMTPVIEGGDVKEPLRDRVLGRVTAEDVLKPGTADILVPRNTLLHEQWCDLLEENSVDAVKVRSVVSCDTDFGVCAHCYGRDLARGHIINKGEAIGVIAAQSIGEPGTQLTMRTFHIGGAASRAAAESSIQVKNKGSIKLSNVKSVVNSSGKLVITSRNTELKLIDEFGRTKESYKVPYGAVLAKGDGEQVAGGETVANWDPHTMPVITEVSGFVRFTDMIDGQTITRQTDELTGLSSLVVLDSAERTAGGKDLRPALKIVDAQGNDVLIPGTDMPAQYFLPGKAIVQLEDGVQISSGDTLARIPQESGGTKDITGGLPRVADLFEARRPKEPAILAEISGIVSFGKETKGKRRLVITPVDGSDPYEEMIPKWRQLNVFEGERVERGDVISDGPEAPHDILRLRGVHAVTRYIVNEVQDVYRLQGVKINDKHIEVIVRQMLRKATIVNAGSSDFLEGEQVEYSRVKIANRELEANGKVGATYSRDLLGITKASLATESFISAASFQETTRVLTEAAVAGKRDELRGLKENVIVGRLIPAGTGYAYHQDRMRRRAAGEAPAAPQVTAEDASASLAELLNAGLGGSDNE
Target sequence in this assay (P0A8V2 whole entry, further chain, the tested form may be a part): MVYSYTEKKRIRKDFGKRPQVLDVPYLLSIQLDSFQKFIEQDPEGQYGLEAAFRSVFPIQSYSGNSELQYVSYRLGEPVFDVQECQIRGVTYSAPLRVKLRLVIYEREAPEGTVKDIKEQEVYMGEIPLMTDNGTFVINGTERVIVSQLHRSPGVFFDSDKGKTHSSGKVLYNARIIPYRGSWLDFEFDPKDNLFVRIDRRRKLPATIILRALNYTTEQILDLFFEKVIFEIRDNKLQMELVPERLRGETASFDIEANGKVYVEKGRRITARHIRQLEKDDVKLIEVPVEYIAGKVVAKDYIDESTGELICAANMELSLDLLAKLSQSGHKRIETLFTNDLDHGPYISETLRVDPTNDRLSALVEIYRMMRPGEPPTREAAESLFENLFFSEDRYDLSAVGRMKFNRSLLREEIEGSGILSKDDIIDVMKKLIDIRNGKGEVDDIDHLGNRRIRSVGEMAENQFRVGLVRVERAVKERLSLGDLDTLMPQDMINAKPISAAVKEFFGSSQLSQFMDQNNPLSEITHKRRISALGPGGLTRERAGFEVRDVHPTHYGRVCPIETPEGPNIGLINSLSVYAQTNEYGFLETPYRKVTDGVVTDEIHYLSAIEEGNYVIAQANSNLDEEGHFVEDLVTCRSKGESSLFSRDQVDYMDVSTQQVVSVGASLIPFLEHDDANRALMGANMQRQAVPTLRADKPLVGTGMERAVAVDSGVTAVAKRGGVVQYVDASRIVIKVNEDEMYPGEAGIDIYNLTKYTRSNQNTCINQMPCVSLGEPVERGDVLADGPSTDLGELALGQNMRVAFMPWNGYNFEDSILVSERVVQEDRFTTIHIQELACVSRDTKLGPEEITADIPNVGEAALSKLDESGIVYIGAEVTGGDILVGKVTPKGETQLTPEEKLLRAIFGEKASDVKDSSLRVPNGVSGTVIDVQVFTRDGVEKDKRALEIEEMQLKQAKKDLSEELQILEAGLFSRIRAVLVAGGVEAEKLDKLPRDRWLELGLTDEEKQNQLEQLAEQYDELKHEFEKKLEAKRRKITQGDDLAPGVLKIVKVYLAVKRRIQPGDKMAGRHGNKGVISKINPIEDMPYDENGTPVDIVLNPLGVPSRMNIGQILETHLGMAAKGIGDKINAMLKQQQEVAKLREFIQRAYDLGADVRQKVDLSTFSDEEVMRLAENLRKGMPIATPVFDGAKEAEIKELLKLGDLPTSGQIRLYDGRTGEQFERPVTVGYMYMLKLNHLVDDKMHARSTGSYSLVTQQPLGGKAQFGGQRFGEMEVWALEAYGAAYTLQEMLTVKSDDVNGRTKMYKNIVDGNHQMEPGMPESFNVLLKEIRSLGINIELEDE
Target sequence in this assay (P0A7Z4 whole entry, further chain, the tested form may be a part): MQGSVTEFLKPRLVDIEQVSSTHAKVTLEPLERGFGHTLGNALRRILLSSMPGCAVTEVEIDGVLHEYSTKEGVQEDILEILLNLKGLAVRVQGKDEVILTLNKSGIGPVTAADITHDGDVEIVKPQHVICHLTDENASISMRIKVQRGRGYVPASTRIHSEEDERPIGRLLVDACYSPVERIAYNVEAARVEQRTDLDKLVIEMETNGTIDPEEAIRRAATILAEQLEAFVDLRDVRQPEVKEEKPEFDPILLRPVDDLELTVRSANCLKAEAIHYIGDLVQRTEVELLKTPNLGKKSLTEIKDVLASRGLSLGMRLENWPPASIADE

labeled σ^70 and β′ = labeled σ^70 and β′ (Escherichia coli, UniProt P00579+P0A8T7, C132S/C291S/C295S/S442C); conditions: 10 nM labeled σ^70, 50 nM labeled β′
labeled σ^70 and β′, sequence (P00579 whole entry C132S/C291S/C295S/S442C): as the sequence (P00579 whole entry, the tested form may be a part) above, with C132S, C291S, C295S, S442C counted along it
labeled σ^70 and β′, sequence (P0A8T7 100-309): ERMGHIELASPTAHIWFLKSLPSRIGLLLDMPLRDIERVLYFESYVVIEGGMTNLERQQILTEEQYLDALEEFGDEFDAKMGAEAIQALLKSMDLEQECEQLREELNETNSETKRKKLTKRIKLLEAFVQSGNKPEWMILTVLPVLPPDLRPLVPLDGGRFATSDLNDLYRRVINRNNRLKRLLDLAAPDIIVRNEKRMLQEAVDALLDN
Protocol: The assay was performed in NTG-buffer (200 μL total volume) plus 2.5% DMSO (when insoluble additives were used) with 10 nM σ^70* (labeled protein) and 50 nM β′* (labeled protein). Labeled σ^70 was added first to the assay, then the potential inhibitor and denatured labeled β′ was added last, mixing the solution well after the addition of each component. The mixture was incubated for 5 minutes at RT and measured in a 96-well plate (Costar 3650) with a multi-plate reader (Wallac, VictorV^2 1420). For this time-resolved fluorescence measurement, the manufacturer's protocol (LANCE high count 615/665) was used (excitation with 1000 flashes, at 325 nm, measurement was delayed by 100 μs and acquired for 50 μs at 615 and 665 nm). […] The IC5-emission is corrected for the very small amount of signal from the Eu-emission band (by cross talk measurement of a standard) and then divided by the intensity of the Eu signal. […] The nature of this method allows the differentiation of the loss of signal due to real inhibition from simple absorption caused by the inner filter effect from the substance.

σ^32 = molecular target: T2, σ^32 (Escherichia coli, UniProt P0AGB3)
T2 sequence (P0AGB3 whole entry, looked up): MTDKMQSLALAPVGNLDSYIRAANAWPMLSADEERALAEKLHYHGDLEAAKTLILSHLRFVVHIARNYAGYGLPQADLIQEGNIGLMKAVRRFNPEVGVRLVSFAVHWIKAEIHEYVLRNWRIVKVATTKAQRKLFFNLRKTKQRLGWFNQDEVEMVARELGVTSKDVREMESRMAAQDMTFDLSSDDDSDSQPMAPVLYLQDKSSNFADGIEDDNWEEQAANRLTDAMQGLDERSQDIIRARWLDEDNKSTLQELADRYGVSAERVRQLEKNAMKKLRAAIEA
Protocol: as §1, §2
(§3) All of the sample eluates were also assayed for the presence of any minor σ species.

σ^F = σ^F (Escherichia coli, UniProt P0AEM6); conditions: stationary phase samples
Protocol: as §1, §2, §3

Row | Compound | ability to bind σ^70 compared to wt β′1-319 fragment (σ^70 [1]) | growth at the non-permissive temperature (strain RL602) | Eσ^70 formation / binding σ^70 (σ^70 [2]) | further results
1 | Y269A (FATSDLNDLARRVINRNNRLKRLLDLAAPDIIVRNEKRMLQEAVDALLDN) | no effects on binding | no detectable effects on growth | no detectable affect | 
2 | A302D (FATSDLNDLYRRVINRNNRLKRLLDLAAPDIIVRNEKRMLQEDVDALLDN) | greatly reduced | could not support growth | defects in binding σ^70 | 
3 | N309D (FATSDLNDLYRRVINRNNRLKRLLDLAAPDIIVRNEKRMLQEAVDALLDD) | binding more σ^70 than wild type | no detectable effects on growth | no detectable affect | 
4 | CCO [ethanol] |  |  |  | effect on LRET signal / competition (labeled σ^70 and β′): significant effect
5 | Q300E (FATSDLNDLYRRVINRNNRLKRLLDLAAPDIIVRNEKRMLEEAVDALLDN) | binding more σ^70 than wild type | no detectable effects on growth |  | increase in relative binding (σ^70 [1]; versus wild type β′1-319): greater than 7 fold; amount of σ^32 (σ^32; log phase samples): decreased amount; σ^32 levels (σ^32; stationary phase samples): greatly reduced; σ^F levels (σ^F): greatly reduced
6 | R275Q (FATSDLNDLYRRVINQNNRLKRLLDLAAPDIIVRNEKRMLQEAVDALLDN) | greatly reduced | could not support growth | defects in binding σ^70 | 
7 | R293Q (FATSDLNDLYRRVINRNNRLKRLLDLAAPDIIVQNEKRMLQEAVDALLDN) | greatly reduced | could support growth | no detectable affect | 
8 | R297S (FATSDLNDLYRRVINRNNRLKRLLDLAAPDIIVRNEKSMLQEAVDALLDN) | greatly reduced | could support growth |  | Eσ^70 formation (σ^70 [2]; log phase samples): reduced; binding of the minor sigmas (σ^32; minor σ's at detectable levels: σ^32 and σ^F): increased binding
9 | C[S+](C)[O-] [DMSO] |  |  |  | effect on LRET signal / competition (labeled σ^70 and β′): no significant effect
10 | K280E (FATSDLNDLYRRVINRNNRLERLLDLAAPDIIVRNEKRMLQEAVDALLDN) | no effects on binding | no detectable effects on growth | no detectable affect | 
11 | N266D (FATSDLDDLYRRVINRNNRLKRLLDLAAPDIIVRNEKRMLQEAVDALLDN) | no effects on binding | allowed some growth | reduced | 
12 | E295K (FATSDLNDLYRRVINRNNRLKRLLDLAAPDIIVRNKKRMLQEAVDALLDN) | greatly reduced | could not support growth | defects in binding σ^70 | 
